{"source": "patent EP2319871A1", "about": "(Sanofi-Aventis, dated 2011)", "binders": {"B1": {"name": "56 RAGE-1 (antibody, V domains shown)", "VH": "QVQLQQSGPELVKPGASVRISCKASGYTFTSYFIHWVKQRPGQGLEWIGWIYPGNVNTKYNEKFKDKATLTADKSSSTAYMQLSNLTSEDSAVYFCVRGQLGDYWGQGITLTVSS", "VL": "DIVMTQSQKFMSTSVGDRVSVTCKASQNVGINVAWYQQKPGQSPKALIYSASYRYSGVPDRFTGSGSGTDFTLIISNVQSEDLAEYFCQQYNNYPRTFGGGTKLEIK", "notes": "Hybridoma monoclonal antibody, captured on anti-mouse Fc in Biacore; also called LP08103; Protein 56 RAGE-1"}, "B2": {"name": "95 RAGE-1 (antibody, V domains shown)", "VH": "QVQLQQPGAELVKPGASVKLSCKASGYTFTSYWMHWVKQRPGQGLEWIGESNPSNGRTNYNEKFKNKATLTVDKSSSTAYMQLSSLTSEDSAVYYCARAPYYGFDYWGQGTTLTVSS", "VL": "QAVVTQESALTTSPGETVTLTCRSSTGAVTTSNYANWVQEKPDHLFTGLTGGTNNRAPGVPARFSGSLIGDKAALTITGAQTEDEAIYFCALWYSNHWVFGGGTKLTVL", "notes": "Hybridoma monoclonal antibody, captured on anti-mouse Fc in Biacore; also called Protein 95 RAGE-1"}, "B3": {"name": "140 RAGE-1 (antibody, V domains shown)", "VH": "QVQLQQPGAELVKPGASVRLSCKASGYTFTSYWMHWVKQRPGQGLEWIGEINPSNGRTNYNEKFKSKATLTVDKSSSTAYMQLSSLTSEDSAVYYCARDGLGYRPIAMDYWGQGTSVTVSS", "VL": "QIVLTQSPAIMSASPGEKVTISCSASSSVSYMYWYQQKPGSSPKPWIYRTSNLASGVPARFSGSGSGTSYSLTISSMEAEDAATYYCQQYHSYPPMYTFGGGTKLEIK", "notes": "Hybridoma monoclonal antibody, captured on anti-mouse Fc in Biacore; also called Protein 140 RAGE-1"}, "B4": {"name": "152 RAGE-1 (antibody, V domains shown)", "VH": "DVQLQESGPDLVKPSQSLSLTCTVTGYSITSGYSWHWIRQFPGNKLEWMGYIHYSGSTNYNPSLKSRISITRDTSKNQFFLQLNSVTTEDTATYYCARGGDFAYWGQGTLVTVSA", "VL": "DIVLTQSPASLAVSLGQRATISCRASKSVGTSDSSYMHWYQQKPGQPPKLLIYLASNLESGVPARFSGSGSGTDFTLNIHPVEEEDAATYYCQHSRELYTFGGGTKLEIK", "notes": "Hybridoma monoclonal antibody, captured on anti-mouse Fc in Biacore; also called LP08104; Protein 152 RAGE-1"}, "B5": {"name": "130 RAGE-1 (antibody, V domains shown)", "VH": "EVQLVESGGGLVKPGGSLKLSCAASGFTFSSYVMSWVRQSPEKRLEWVAEISSGGSYTYYPDTVTGRFTISRDNDKNTLYLEMSSLRSEDTAMYYCARPPYGKDAMDYWGQGTSVTVSS", "VL": "QIVLTQSPAIMSASPGEKVTMTCSASSSVSYMHWYQQKSGTSPKRWISDTSKLASGVPARFSGSGSGTSYSLTISSMEAEDAATYYCQQWSSNPPTFGGGTKLEIK", "notes": "Hybridoma monoclonal antibody, captured on anti-mouse Fc in Biacore; also called Protein 130 RAGE-1"}}, "note": "Where “and” joins values, the source holds several entries; their conditions need not be identical. Identical values can stand only once.", "data": [{"molecular_target": "T1, RAGE-Fc (human, UniProt Q15109 23-342, limits assumed)", "T1 construct": "Format stated for the S100A12 and S100A6 ELISAs; also called hRAGE; not shown: Fc part, detected with anti-hIgG Fc-specific-POD", "T1 sequence (Q15109 23-342 limits assumed)": "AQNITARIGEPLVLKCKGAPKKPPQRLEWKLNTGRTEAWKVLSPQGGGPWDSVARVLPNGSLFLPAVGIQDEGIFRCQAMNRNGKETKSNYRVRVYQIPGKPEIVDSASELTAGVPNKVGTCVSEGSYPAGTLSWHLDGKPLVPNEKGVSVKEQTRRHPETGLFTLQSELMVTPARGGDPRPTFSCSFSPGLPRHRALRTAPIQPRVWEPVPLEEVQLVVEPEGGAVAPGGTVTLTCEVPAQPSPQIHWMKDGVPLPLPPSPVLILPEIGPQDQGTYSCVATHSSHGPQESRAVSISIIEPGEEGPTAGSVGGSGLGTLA", "assay": "competition ELISA, RAGE-S100A6 interaction (competitor S100A6)", "units": {"IC50": "nM"}, "values": [{"binder": "B1", "IC50": 7.7}]}, {"molecular_target": "T2, sRAGE (V-C1-C2) lot LP08062 (human, UniProt Q15109 23-342)", "T2 construct": "extracellular domain; also called Human RAGE; LP08062 (Rage)", "T2 sequence (Q15109 23-342)": "as the sequence (Q15109 23-342 limits assumed) above", "assay": "SPR (Biacore), mAb captured on anti-mouse Fc, sRAGE 15 nM, 1:1 Langmuir", "units": {"Kd": "nM", "koff": "s⁻¹", "kon": "M⁻¹ s⁻¹"}, "values": [{"binder": "B1", "Kd": 1.87, "koff": 0.00539, "kon": "2.89e+06"}, {"binder": "B2", "Kd": 0.462, "koff": 0.00123, "kon": "2.66e+06"}, {"binder": "B3", "Kd": 0.303, "koff": 0.00157, "kon": "5.19e+06"}, {"binder": "B4", "Kd": 0.687, "koff": 0.00265, "kon": "3.86e+06"}, {"binder": "B5", "Kd": 0.236, "koff": 0.00136, "kon": "5.76e+06"}]}, {"molecular_target": "RAGE-Fc (human) (UniProt Q15109)", "sequence (Q15109 23-342 limits assumed)": "as above", "assay": "competition ELISA, mAb 10 µg/mL + RAGE-Fc 10 µg/mL on coated S100A6 (competitor S100A6)", "units": {"inhibitory effect": "%"}, "values": [{"binder": "B4", "inhibitory effect": "> 20"}]}, {"molecular_target": "T1, RAGE-Fc", "assay": "competition ELISA, RAGE-Fc 10 µg/mL + diluted mAb on coated S100A6 (competitor S100A6)", "values": [{"binder": "B1", "IC50": "1.16 µg/mL and 7.73 nM"}]}]}
